We go through one molecule from PMC12120766, “Paclitaxel/Luteolin Coloaded Dual‐Functional Liposomes for Esophageal Cancer Therapy”.

Data set [1] addresses T1, CTNNA1 (catenin alpha 1) (UniProt P35221 2-906). Briefly: MST; MST: 50 nM labeled CTNNA1 in 10 mM PBS pH 7.4, EA2 0.00153-50 uM in 10 mM PBST (0.05% Tween-20) pH 7.4; temperature not stated. Particulars: tags: RED-NHS dye label; predicted mFold secondary structure.
Data set [2] addresses T1, CTNNA1 (catenin alpha 1). Briefly: MST; no antibody (control of the antibody competition); MST: 50 nM labeled CTNNA1 in 10 mM PBS pH 7.4, EA2 0.00153-50 uM in 10 mM PBST (0.05% Tween-20) pH 7.4; temperature not stated. To be noted: tags: RED-NHS dye label; predicted mFold secondary structure.

In general, Kd refers to the equilibrium constant for the complex coming apart.

T1 sequence (P35221 2-906): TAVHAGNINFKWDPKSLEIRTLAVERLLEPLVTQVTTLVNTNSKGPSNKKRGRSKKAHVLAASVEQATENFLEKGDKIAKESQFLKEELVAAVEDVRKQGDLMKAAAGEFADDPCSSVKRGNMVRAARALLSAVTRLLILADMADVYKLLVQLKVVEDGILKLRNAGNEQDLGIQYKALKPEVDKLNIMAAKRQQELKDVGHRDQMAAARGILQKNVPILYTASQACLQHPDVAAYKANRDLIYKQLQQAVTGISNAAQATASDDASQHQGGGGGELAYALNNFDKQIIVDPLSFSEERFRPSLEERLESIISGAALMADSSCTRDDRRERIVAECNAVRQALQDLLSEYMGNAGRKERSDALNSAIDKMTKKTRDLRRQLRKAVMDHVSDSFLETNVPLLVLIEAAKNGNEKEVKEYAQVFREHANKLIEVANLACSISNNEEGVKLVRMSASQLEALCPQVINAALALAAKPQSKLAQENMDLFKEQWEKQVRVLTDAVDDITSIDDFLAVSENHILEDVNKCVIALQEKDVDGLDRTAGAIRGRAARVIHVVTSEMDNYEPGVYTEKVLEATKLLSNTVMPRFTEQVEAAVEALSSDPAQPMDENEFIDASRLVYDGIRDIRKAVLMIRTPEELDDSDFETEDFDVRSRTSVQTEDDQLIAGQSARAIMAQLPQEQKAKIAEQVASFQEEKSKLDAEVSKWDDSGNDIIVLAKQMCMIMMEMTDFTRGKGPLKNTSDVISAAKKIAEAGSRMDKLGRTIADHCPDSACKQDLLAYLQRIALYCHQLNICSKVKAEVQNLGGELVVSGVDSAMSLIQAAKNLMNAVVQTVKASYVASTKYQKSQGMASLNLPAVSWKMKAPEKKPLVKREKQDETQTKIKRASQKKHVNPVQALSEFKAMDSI

B1: EA2 (ssDNA)
DNA: AGCCTAAGCCTGTCCAGGAATCGTGCAGCCATAGCCTAAGCCTGTCCAGGAATCGATGGCTTAGTGGCACGATTAGGTC
For the molecule B1, the values for the Kd in data set [1] and in data set [2] were 2070 ± 600 nM and 2300 ± 600 nM, respectively.
